Among the data in patent publication US20070213269 are Kd, activity (fold repression) and activity (% inhibition of virus production) values, retold here.

One series deals with PBS1 (synthetic). Kind of series: EMSA. (In EMSA bound probe runs differently from free probe, usually more slowly.)
A further series deals with PBS2 (synthetic). Description: EMSA.
The test system of another series is PBS1a (synthetic). Description: EMSA.
The next series concerns KRAB-PBS1 (synthetic). Kind of series: cell_activity. The settings on record: with Tat.
The test system of a further series is KRAB-PBS1a (synthetic). Description: cell_activity. The settings on record: with Tat.
The subject of the next series is KRAB-PBS2 (synthetic). Kind of series: cell_activity. The settings on record: for activity (fold repression): with Tat.
For another series, the system named is PBS3 (synthetic). Description: EMSA.

For the substance “AAATCTCTAGCAGTGGCG [HIV-1 PBS hairpin, PBS1 site]”, the Kd (as a rule, the constant that tells how readily two partners part at equilibrium) in the series on PBS1 (synthetic) came to 0.79 nM.
In the series with PBS2 (synthetic), “GCAGTGGCGCCCGAACAG [HIV-1 PBS hairpin, PBS2 site]” had a Kd of 2.4 nM.
In the series on PBS1a (synthetic), “GTGTGGAAAATCTCTAGCAGTGGCG [HIV-1 PBS hairpin, PBS1a site]” displayed a Kd of 1.25 nM.
“HIV-1 LTR-luciferase reporter (LTR658-luc)”: the activity (fold repression) is 20 in the series with KRAB-PBS1 (synthetic) (HeLa), 9.5 in the series with KRAB-PBS1a (synthetic) (HeLa) and 28 in the series with KRAB-PBS2 (synthetic) (HeLa).
For HIV-1 with wild-type B-subtype LTR, in the series with KRAB-PBS2 (synthetic) (transduced PBMCs, NL4-3 challenge), the activity (% inhibition of virus production) is greater than 90.
“TGGCGCCCGAACAGGGAC [HIV-1 PBS hairpin, PBS3 site]” returned a Kd in the series with PBS3 (synthetic) of 0.93 nM.
Consider “chromosomally integrated HIV-1 LTR reporter (TZM-bl)”, for which the activity (fold repression) with KRAB-PBS1 (synthetic) (TZM-bl luciferase) amounted to 7; in the series with KRAB-PBS1a (synthetic) (TZM-bl luciferase), 15; in the series with KRAB-PBS2 (synthetic) (TZM-bl luciferase), 20.
